Experimental data reported in patent US20170355730A1.
Starred links: 1 amine or outer side, 2 acyl side, 3 side chain; linkers in the order of their positions; H or OH if unused. Non-standard residues stand in square brackets, D forms with d. Primed or numbered codes have the meaning given here. No end group written: not given here. Trimesoyl = O=C(c1cc(C(=O)[*:2])cc(C(=O)[*:3])c1)[*:1]; dPhe(4-CN) = N#Cc1ccc(C[C@@H](N)C(=O)O)cc1; Phe(4-F) = N[C@@H](Cc1ccc(F)cc1)C(=O)O; 2Nal = N[C@@H](Cc1ccc2ccccc2c1)C(=O)O; Pip′ = L-homoproline (pipecolyl); D‑4‑Phe = not defined here; Pip = O=C(O)[C@@H]1CCCCN1; d4Phe = not defined here; Dap = NC[C@H](N)C(=O)O

B1: peptide 35 (Table 18) (peptide)
peptide: Trimesoyl-[D‑2‑Fpa][Phe(4-F)][dT][Pip′][2Nal]RA[dF][Dap]F[2Nal]RRRR[Dap]K
modifications: linker (positions not given here) via Trimesoyl; not fully specified (C-terminus, bridges); printed as bicyclo[Tm-(D-2-Fpa-Fpa-D-Thr-Pip-Nal-Arg-Ala-D-Phe)-Dap-(Phe-Nal-Arg-Arg-Arg-Arg-Dap)]-Lys
B2: peptide 38 (Table 18) (peptide)
peptide: Trimesoyl-[dPhe(4-CN)][Phe(4-F)][dT][Pip′][2Nal]RA[dF][Dap]F[2Nal]RRRR[Dap]K
modifications: linker (positions not given here) via Trimesoyl; not fully specified (C-terminus, bridges); printed as bicyclo[Tm-(D-4-CyanoPhe-Fpa-D-Thr-Pip-Nal-Arg-Ala-D-Phe)-Dap-(Phe-Nal-Arg-Arg-Arg-Arg-Dap)]-Lys
B3: peptide 43 (Table 18) (peptide)
peptide: Trimesoyl-[dF][Phe(4-F)][dT][Pip′][2Nal]RA[dF][Dap]RR[2Nal]FRR[Dap]K
modifications: linker (positions not given here) via Trimesoyl; not fully specified (C-terminus, bridges); printed as bicyclo[Tm-(D-Phe-Fpa-D-Thr-Pip-Nal-Arg-Ala-D-Phe)-Dap-(Arg-Arg-Nal-Phe-Arg-Arg-Dap)]-Lys
B4: peptide 41 (Table 18) (peptide)
peptide: Trimesoyl-[d4Phe][Phe(4-F)][dhGlu][Pip][2Nal]RA[dF][Dap]F[2Nal]RRRR[Dap]K
modifications: linker (positions not given here) via Trimesoyl; not fully specified (bridges); printed as bicyclo[Tm-(D-4-Phe-Fpa-D-homoGlu-Pip-Nal-Arg-Ala-D-Phe)-Dap-(Phe-Nal-Arg-Arg-Arg-Arg-Dap)]-Lys; reading uncertain
B5: peptide 39 (Table 18) (peptide)
peptide: Trimesoyl-[D‑4‑Phe][Phe(4-F)][dI][Pip′][2Nal]RA[dF][Dap]F[2Nal]RRRR[Dap]K
modifications: linker (positions not given here) via Trimesoyl; not fully specified (C-terminus, bridges); printed as bicyclo[Tm-(D-4-Phe-Fpa-D-Ile-Pip-Nal-Arg-Ala-D-Phe)-Dap-(Phe-Nal-Arg-Arg-Arg-Arg-Dap)]-Lys; reading uncertain
B6: peptide 42 (Table 18) (peptide)
peptide: Trimesoyl-[dF][Phe(4-F)][dT][Pip′][2Nal]RA[dF][Dap]RRRR[2Nal]F[Dap]K
modifications: linker (positions not given here) via Trimesoyl; not fully specified (C-terminus, bridges); printed as bicyclo[Tm-(D-Phe-Fpa-D-Thr-Pip-Nal-Arg-Ala-D-Phe)-Dap-(Arg-Arg-Arg-Arg-Nal-Phe-Dap)]-Lys
B7: peptide 36 (Table 18) (peptide)
peptide: Trimesoyl-[D‑3‑Fpa][Phe(4-F)][dT][Pip′][2Nal]RA[dF][Dap]F[2Nal]RRRR[Dap]K
modifications: linker (positions not given here) via Trimesoyl; not fully specified (C-terminus, bridges); printed as bicyclo[Tm-(D-3-Fpa-Fpa-D-Thr-Pip-Nal-Arg-Ala-D-Phe)-Dap-(Phe-Nal-Arg-Arg-Arg-Arg-Dap)]-Lys

What follows are binders tested against Pin1 (Example 6, construct not stated) (human) (UniProt Q13526) (assay: fluorescence anisotropy).

First: B1
Second: B2
The Kd of the first is 1.7-fold higher: 590 nM for the first, 350 nM for the second.

Compared with B3, B4 is 1.6-fold lower in Kd: 1380 nM for the first, 870 nM for the second. The second binds more tightly here.

Compared with B5, B6 is 2.1-fold higher in Kd: 460 nM for the first, 980 nM for the second. The first binds more tightly here.

B7 was tested, and the Kd was 390 nM.
